Measured values from US8114412B2, “T. cruzi-derived neurotrophic agents and methods of use therefor” (priority 1999, dated 2012).

Legend:
Bcl-2 mRNA in PC12 cells = assay: RT-PCR of Bcl-2 gene transcripts in PC12 cells; type: cell-based, rat; settings: TS 2.5 ng/ml, CNTF 50 ng/ml, alone or combined, 17 hours
Method: Total RNA was extracted from PC12 cells by the acid guanidinum isothiocyanate method (Chomchinski, P., et al., Biotechniques 15: 532-535 (1993)) using TRI-reagent (Molecular Research Center, Inc.). cDNA synthesis was performed according to the instruction of the manufacturer (Gibco-BRL). Reverse transcription reactions were carried out for 50 minutes at 42° C. and were heated to 70° C. for 15 minutes to terminate the reaction using a MiniCycler (MJ Research). Samples were cooled to 4° C. and stored at −20° C. until use.
PCR reactions were performed in 50 μl containing 1.5 μl of template DNA (corresponding to cDNA synthesized from 100 ng of total RNA), 1×PCR buffer, 100 μM of deoxynucleotides, 2.5 mM MgCl2, 10 mM DTT, 10 pM of Bcl-2 primers, and 2 U of Taq DNA polymerase (Gibco-BRL). The synthetic DNA primers for the rat Bcl-2 were: 5′-[…]-3′ (SEQ ID NO:8) and 5′-[…]-3′(SEQ ID NO:9) to give a PCR product of 566 bp. The sequences for synthetic GAPDH DNA primers (Wong, H., et al., Anal. Biochem. 223: 251-258 (1994)) were: 5′-[…]-3′ (SEQ ID NO:10) and 5′-[…]-3′ (SEQ ID NO:11) giving a PCR produce of 306 base pairs. Amplifications were carried out in MiniCycler (MJ Research) using following conditions: 98° C. for 5 minutes (initial heat denaturation), 3 cycles of 94° C. for 1 minute, 63° C. for 1 minute, 72° C. for 1.5 minutes; 3 cycles of 94° C. for 1 minutes, 60° C. for 1 minute, 72° C. for 1.5 minutes, followed by 72° C. for 10 minutes. Primers for GAPDH (10 pM) were added at cycle 7 by the “primer-dropping” method. Aliquots of PCR reaction products were separated by electrophoresis in 2% agarose gels (Ultrapure, Gibco-BRL), containing 0.2 μg/ml ethidium bromide. Gels were analyzed by computerized densitometric scanning using Gel doc 1000 (Bio Rad) and Molecular Analyst Software, version 2.1.

PC12 cells [1] = assay: Trophic factor withdrawal-induced apoptosis of PC12 cells (DAPI/TUNEL); type: cell-based, rat; settings: serum-free RPMI-1640/0.2% BSA, 17 hours, DAPI or TUNEL
Excerpt: PC12 cells were obtained from ATCC (Manassas, Va. (Accession No. CRL-1721)) and cultured on collagen-coated dishes in RPMI 1640 supplemented with 10% horse serum and 5% fetal bovine serum (Greene, L. A. and Tishler, A. S., Proc. Natl. Acad. Sci. USA, 73: 2424-2428 (1976)). For differentiation and survival experiments, cells were washed three times in serum-free RPMI/0.2% BSA, plated in the same medium in collagen-coated plastic dishes at 2×10^5/ml, without and with growth factors, TS, recombinant proteins, synthetic peptides, for the time and concentrations indicated in the Figures.
Cell staining with 4,6-diamino-2-phenylindole (DAPI). Cells were fixed with 4% formaldehyde in PBS for 5 minutes, washed with PBS, stained with 10 μg/ml DAPI (Sigma) for 2 minutes, washed with PBS, and visualized under UV light using a fluorescent microscope. About 300-400 cells were examined under the microscope to determine the percentage of apoptotic cells.
Cell DNA nick end labeling (TUNEL) (Gavrieli, Y., et al., J. Cell. Biol. 119: 493-501 (1992)) assay was performed using a kit purchased from Boehringer Mannheim as described by the manufacturer.
(§1) Protection against apoptosis of PC12 cells in serum-free medium containing a test agent (agent N)(e.g., protection induced by TS, TS fragments, NGF or other growth factors), was calculated by the formula: 100%-[(apoptosis(%) of cells kept in RPMI containing test agent N÷apoptosis (%) of cells kept in RPMI)×100%]. Testing the effect of wortmannin (Sigma) and LY294002 (Sigma) in inhibiting the neuroprotection of TS was performed following the protocol described by others (Yao and Cooper, Science, 267:2003-2006 (1995); D'Mello et al., J. Neurosci 17:1548-1560 (1997)). In brief, PC12 cells were switched from growth medium to RPMI without and with TS or various other growth factors. After 24 hr, wortmannin and LY294002 were added to the cultures. After another 24 hrs, cells were examined for apoptosis by the DAPI assay, as above.

PC12 cells [2] = assay: Reversal of TS-induced neuroprotection by PI-3 kinase inhibitors in PC12 cells; type: cell-based, rat; settings: RPMI+CNTF 50 ng/ml; similar to RPMI alone
Method: as §1

[3] = Martin et al. 1996; cited from earlier work

B1: CNTF: human ciliary neurotrophic factor; recombinant human and rat CNTF (protein, UniProt P26441 1-200, looked up)
Ciliary neurotrophic factor: MAFTEHSPLTPHRRDLCSRSIWLARKIRSDLTALTESYVKHQGLNKNINLDSADGMPVASTDQWSELTEAERLQENLQAYRTFHVLLARLLEDQQVHFTPTEGDFHQAIHTLLLQVAAFAYQIEELMILLEYKIPRNEADGMPINVGDGGLFEKKLWGLKVLQELSQWTVRSIHDLRFISSHQTGIPARGSHYIANNKKM
In the case of B1, the “bcl-2 gene expression in PC12 cells” value (Bcl-2 mRNA in PC12 cells) is reported as “did not induce bcl-2 gene expression individually”, the “protection of PC12 cells from apoptosis induced by trophic factor withdrawal” value (PC12 cells [1]) is reported as “little, if any, protection” and the “viability of PC12 cells” value (PC12 cells [2]) is reported as roughly 33%. The “undesirable side effects of administration” value [3] was “muscle atrophy, cachexia and anorexia”.
